Reference: IntAct's records for PubMed 25066297

B1: Probable thioesterase PNKD (Homo sapiens), Q8N490 (parent)
chain: MAAVVAATALKGRGARNARVLRGILAGATANKASHNRTRALQSHSSPEGKEEPEPLSPELEYIPRKRGKNPMKAVGLAWYSLYTRTWLGYLFYRQQLRRARNRYPKGHSKTQPRLFNGVKVLPIPVLSDNYSYLIIDTQAQLAVAVDPSDPRAVQASIEKEGVTLVAILCTHKHWDHSGGNRDLSRRHRDCRVYGSPQDGIPYLTHPLCHQDVVSVGRLQIRALATPGHTQGHLVYLLDGEPYKGPSCLFSGDLLFLSGCGRTFEGNAETMLSSLDTVLGLGDDTLLWPGHEYAEENLGFAGVVEPENLARERKMQWVQRQRLERKGTCPSTLGEERSYNPFLRTHCLALQEALGPGPGPTGDDDYSRAQLLEELRRLKDMHKSK

Variants of: B1
Conditions: with mk03_human MAPK3, P27361
mk03_human MAPK3, P27361, sequence (P27361 whole entry): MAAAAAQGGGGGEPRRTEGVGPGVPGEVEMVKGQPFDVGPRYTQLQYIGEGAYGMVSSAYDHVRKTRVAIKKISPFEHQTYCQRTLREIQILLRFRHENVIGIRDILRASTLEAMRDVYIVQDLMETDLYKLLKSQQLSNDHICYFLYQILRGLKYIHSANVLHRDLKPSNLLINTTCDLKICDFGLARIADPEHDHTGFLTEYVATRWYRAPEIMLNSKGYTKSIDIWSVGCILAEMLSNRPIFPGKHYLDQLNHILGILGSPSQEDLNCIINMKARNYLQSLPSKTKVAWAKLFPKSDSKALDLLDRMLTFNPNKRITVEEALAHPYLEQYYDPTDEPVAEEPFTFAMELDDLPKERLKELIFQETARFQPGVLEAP

| Variant | effect of a mutation on the interaction |
| --- | --- |
| S46A | disrupting interaction |
